We go through eleven sequences from the Immune Epitope Database (IEDB).

Assay [1] deals with HLA-A*24:03. In words: IEDB peptide-MHC binding, purified MHC/direct/fluorescence; filed as Kd, often an IC50 or EC50 that approximates it; ≥ and ≤ were set here for values at or beyond the usual limits of such assays.
The target in another assay is HLA-C*06:02. The description is as above. Particulars: source organism: Cryptosporidium parvum.
The next assay addresses HLA-A*24:02. In words: IEDB peptide-MHC binding, purified MHC/competitive/fluorescence; filed as Kd, often an IC50 or EC50 that approximates it; ≥ and ≤ were set here for values at or beyond the usual limits of such assays.
The next assay concerns the target HLA-A*02:01. The assay is described as follows: IEDB peptide-MHC binding, purified MHC/direct/fluorescence; filed as Kd, often an IC50 or EC50 that approximates it; ≥ and ≤ were set here for values at or beyond the usual limits of such assays.
The target in the next assay is HLA-A*02:03. The assay is described as above.
Another assay has as its target HLA-A*02:11. Described as above.
A further assay has as its target HLA-A*02:12. Described as above.
A further assay has as its target HLA-A*02:16. The description is as above.
In the next assay the target is HLA-A*02:19. Described as above.
The next assay deals with HLA-A*03:01. Described as above.
A further assay has as its target HLA-A*23:01. The description is as above. Particulars: source organism: Toxoplasma gondii.
A further assay addresses HLA-A*26:01. The description is as above.
For a further assay, the target named is HLA-A*29:02. Described as above.
The next assay concerns the target HLA-A*68:02. Described as above. The note with it: source organism: Toxoplasma gondii.
The next assay deals with HLA-A*69:01. Described as above.
Another assay addresses HLA-B*15:01. The assay is described as above.
A further assay deals with HLA-B*15:17. Described as above.
For the next assay, the target named is HLA-B*18:01. The assay is described as above.
A further assay addresses HLA-B*27:03. The assay is described as above.
For a further assay, the target named is HLA-B*39:01. Described as above.
For another assay, the target named is HLA-B*46:01. The description is as above.
For assay [2], the target named is HLA-B*51:01. Described as above.
Another assay deals with HLA-B*57:01. The description is as above.
The next assay concerns the target HLA-C*08:02. Described as above. Particulars: source organism: Vaccinia virus WR.
Another assay deals with HLA-C*12:03. Described as above. Particulars: source organism: Vaccinia virus WR.
For assay [3], the target named is HLA-B*51:01. In words: IEDB peptide-MHC binding, purified MHC/competitive/fluorescence; filed as Kd, often an IC50 or EC50 that approximates it; ≥ and ≤ were set here for values at or beyond the usual limits of such assays. Particulars: source organism: Vaccinia virus WR.
The target of a further assay is HLA-C*07:02. The assay is described as follows: IEDB peptide-MHC binding, purified MHC/direct/fluorescence; filed as Kd, often an IC50 or EC50 that approximates it; ≥ and ≤ were set here for values at or beyond the usual limits of such assays. Particulars: source organism: Cryptosporidium parvum Iowa II.
The next assay has as its target HLA-C*14:02. Described as above.
For assay [4], the target named is HLA-A*24:03. The assay is described as follows: IEDB peptide-MHC binding, purified MHC/competitive/fluorescence; filed as Kd, often an IC50 or EC50 that approximates it; ≥ and ≤ were set here for values at or beyond the usual limits of such assays. The note with it: source organism: Escherichia coli str. K-12 substr. MG1655.
Another assay addresses HLA-C*15:02. The assay is described as follows: IEDB peptide-MHC binding, purified MHC/direct/fluorescence; filed as Kd, often an IC50 or EC50 that approximates it; ≥ and ≤ were set here for values at or beyond the usual limits of such assays.
The next assay addresses HLA-C*03:03. The description is as above. Particulars: source organism: Campylobacter jejuni subsp. jejuni 81-176.
The mark [5] stands for this setting: source organism: Cryptosporidium parvum.
[6] abbreviates: source organism: Toxoplasma gondii.
The mark [7] stands for this setting: source organism: Camelpox virus M-96.
The mark [8] stands for this setting: source organism: Staphylococcus aureus subsp. aureus N315.
Setting [9] is: source organism: Campylobacter jejuni subsp. jejuni 81116.
Where [10] appears, read: source organism: Toxoplasma gondii RH.

pKd: −log10 of the molar value.

For the sequence RYMYIYLFI, the pKd (usually the Kd on a negative log10 scale, so that one unit is a factor of ten) with HLA-A*24:03 [1] (setting [5]) is 8.40; with HLA-C*06:02, not above 4.70; with HLA-A*24:02 (setting [5]) it was 8.44.

For LPPVVPPLI, the pKd with HLA-A*02:01 (setting [6]), with HLA-A*02:03 (setting [6]), with HLA-A*02:11 (setting [6]), with HLA-A*02:12 (setting [6]), with HLA-A*02:16 (setting [6]) and in the assay with HLA-A*02:19 (setting [6]) was not above 4.70 in each case. For the same sequence, the pKd with HLA-A*03:01 (setting [6]), with HLA-A*23:01, in the assay with HLA-A*24:03 [1] (setting [6]), with HLA-A*26:01 (setting [6]), with HLA-A*29:02 (setting [6]) and in the assay with HLA-A*68:02 was not above 4.70 each time. The pKd in the assay with HLA-A*69:01 (setting [6]), in the assay with HLA-B*15:01 (setting [6]), in the assay with HLA-B*15:17 (setting [6]), with HLA-B*18:01 (setting [6]), with HLA-B*27:03 (setting [6]) and with HLA-B*39:01 (setting [6]) was not above 4.70 in each case. Moreover, the pKd was not above 4.70 with HLA-B*46:01 (setting [6]), 6.70 with HLA-B*51:01 [2] (setting [6]) and not above 4.70 in the assay with HLA-B*57:01 (setting [6]).

Take YLYETYHLI: the pKd is 8.70 with HLA-A*02:01 (setting [7]); 8.42 in the assay with HLA-A*69:01 (setting [7]); not above 4.70 with HLA-C*08:02; 6.81 with HLA-C*12:03; 5.40 in the assay with HLA-B*51:01 [3].

The sequence KWMMAMRYPI had a pKd with HLA-A*24:02 (source organism: Influenza A virus (A/chicken/Fujian/25/00(H9N2))) of 8.49.

Turning to NYKWWWFSF, the pKd is 6.74 in the assay with HLA-C*07:02 and 8.64 with HLA-A*24:02 (source organism: Cryptosporidium parvum Iowa II).

As for AYPELACAV, the pKd with HLA-C*14:02 (source organism: Escherichia coli str. K-12 substr. MG1655) was not below 9.00; with HLA-A*24:03 [4] it was 6.39.

On to RTQAVIYAF, for which the values for the pKd in the assay with HLA-A*24:03 [1] (source organism: Bacillus anthracis), with HLA-C*14:02 (setting [8]) and in the assay with HLA-C*15:02 (setting [8]) were 8.89, 6.88 and 5.85, respectively.

For YTNYPFLFF, the negative logarithm of the Kd (pKd) with HLA-A*02:01 (setting [9]), in the assay with HLA-A*02:03 (setting [9]), with HLA-A*02:12 (setting [9]), with HLA-A*02:16 (setting [9]), with HLA-A*02:19 (setting [9]) and with HLA-A*03:01 (setting [9]) was not above 4.70 in each case. In addition, the pKd in the assay with HLA-B*27:03 (setting [9]) is not above 4.70; in the assay with HLA-B*39:01 (setting [9]) it was not above 4.70; in the assay with HLA-B*51:01 [2] (setting [9]) it was not above 4.70; in the assay with HLA-C*03:03, 6.80; with HLA-C*15:02 (source organism: Campylobacter jejuni subsp. jejuni 81-176) it was 7.60.

In the case of THADAHTQL, the pKd with HLA-A*02:01 (setting [10]), in the assay with HLA-A*02:03 (setting [10]), with HLA-A*02:11 (setting [10]), with HLA-A*02:12 (setting [10]), with HLA-A*02:16 (setting [10]) and with HLA-A*02:19 (setting [10]) was not above 4.70 in each case. Also, the pKd with HLA-A*03:01 (setting [10]), in the assay with HLA-A*24:03 [1] (setting [10]), in the assay with HLA-A*26:01 (setting [10]), with HLA-A*29:02 (setting [10]), in the assay with HLA-A*69:01 (setting [10]) and with HLA-B*15:01 (setting [10]) was not above 4.70 throughout. The pKd with HLA-B*15:17 (setting [10]), with HLA-B*18:01 (setting [10]), in the assay with HLA-B*27:03 (setting [10]), with HLA-B*46:01 (setting [10]), with HLA-B*51:01 [2] (setting [10]) and with HLA-B*57:01 (setting [10]) was not above 4.70 each time.

As for YTASVVAAY, the pKd is 7.01 in the assay with HLA-C*14:02 (source organism: Homo sapiens) and not above 4.70 in the assay with HLA-C*15:02 (source organism: Homo sapiens).

For the sequence RYSKKFKPEI, the pKd with HLA-A*24:02 (source organism: Influenza A virus (A/Swine/Indiana/9K035/99 (H1N2))) was 7.48.
